Where no end group is shown, it is not given here. [ ]: non-standard residue; d: D form. pY = N[C@@H](Cc1ccc(OP(=O)(O)O)cc1)C(=O)O; pT = C[C@@H](OP(=O)(O)O)[C@H](N)C(=O)O

The target in this assay is T1, c-Cbl TKB domain (UniProt P22681 25-351).
T1 construct: these are not the construct limits; source: cloning, expression and purification as described previously [14]; purified
T1 sequence: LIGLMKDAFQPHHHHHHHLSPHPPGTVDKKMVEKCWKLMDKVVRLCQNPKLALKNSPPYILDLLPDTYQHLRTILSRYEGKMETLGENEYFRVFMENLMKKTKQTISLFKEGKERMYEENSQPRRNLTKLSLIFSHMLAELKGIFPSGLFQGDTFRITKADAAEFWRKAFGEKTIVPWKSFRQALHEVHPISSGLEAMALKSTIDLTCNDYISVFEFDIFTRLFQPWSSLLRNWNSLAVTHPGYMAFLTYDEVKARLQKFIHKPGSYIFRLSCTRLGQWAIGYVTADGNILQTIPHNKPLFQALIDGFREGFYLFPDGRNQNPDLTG
The settings on record: both partners purified.

B1: Tyr55 phosphorylated Spry2 peptide (peptide)
peptide: IRNTNE[pY]TEGPT
notes: also called pSpry2; pSprouty2
What is called Kd is the concentration at which binding is half-saturated. The low end stands for higher affinity, the high end for lower affinity. In the case of B1, binding was put at a Kd of 310 nM. This counts as sub-micromolar.

B2: pTyr55/pThr56 Spry2 peptide (peptide)
peptide: IRNTNE[pY][pT]EGPT
notes: Sprouty2 (Spry2), human; also called ppSpry2; pYpT-Spry2; source: synthetic peptide, bought: GL Biochem
B2 returned a Kd of 3830 nM. This Kd is about 12-fold higher than that of the molecule before.

The values above are taken from article PMC2943896, “Additional Serine/Threonine Phosphorylation Reduces Binding Affinity but Preserves Interface Topography of Substrate Proteins to the c-Cbl TKB Domain” (PLoS ONE, 2010).
